How the values were obtained:
[1] = biological target: T1, human B7H4, full length, on cells (human, UniProt Q7Z7D3 25-282); test: cell-based or functional assay
T1 sequence: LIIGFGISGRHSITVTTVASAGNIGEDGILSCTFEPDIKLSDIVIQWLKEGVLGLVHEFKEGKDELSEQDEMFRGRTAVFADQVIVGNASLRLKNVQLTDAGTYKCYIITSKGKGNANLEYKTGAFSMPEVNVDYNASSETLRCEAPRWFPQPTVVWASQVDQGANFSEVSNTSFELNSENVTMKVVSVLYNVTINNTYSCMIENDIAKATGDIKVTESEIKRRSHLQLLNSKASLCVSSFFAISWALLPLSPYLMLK

[2] = biological target: T1, human B7H4, full length, on cells; test: flow cytometry on HCC1954 tumor cells [HCC1954 right panel]
Experimental: (§1) Cells (3×10⁴ cells/well) were incubated in polystyrene 96-well round-bottom plates (Greiner bio-one, cat. no. 650180) with serial dilutions of antibodies (ranging from 0.000458 to 30 μg/mL in 4-fold dilution steps) in 100 μL PBS/0.1% BSA/0.02% azide (staining buffer) at 4° C. for 30 min. Experiments were performed in technical duplicate. After washing twice in staining buffer, cells were incubated in 50 μL secondary antibody at 4° C. for 30 min. As a secondary antibody, R-Phycoerythrin (PE)-conjugated goat-anti-human IgG F(ab′)₂ (1:500 in FACS buffer; Jackson ImmunoResearch Laboratories, Inc., West Grove, PA, cat. no. 109-116-098), was used. Cells were washed twice in staining buffer, re-suspended in 30 μL FACS buffer containing Topro-3 (1:10,000 dilution) and analyzed on an iQue Screener (Intellicyt Corporation, USA). Binding curves were analyzed using non-linear regression (sigmoidal dose-response with variable slope) using GraphPad Prism V7.02 software (GraphPad Software, San Diego, CA, USA).
Binding was analyzed by flow cytometry as described above.

[3] = biological target: T2, pig (Sus scrofa) B7H4, full length, on HEK-293F cells (pig, UniProt Q7Z7D3 26-282 (human entry)); test: flow cytometry, HEK-293F cells transiently transfected with pig B7H4, PE anti-human IgG F(ab')2 [panel Pig B7H4]
T2 construct: Uniprot F1SAY4; also called pig B7H4
T2 chain: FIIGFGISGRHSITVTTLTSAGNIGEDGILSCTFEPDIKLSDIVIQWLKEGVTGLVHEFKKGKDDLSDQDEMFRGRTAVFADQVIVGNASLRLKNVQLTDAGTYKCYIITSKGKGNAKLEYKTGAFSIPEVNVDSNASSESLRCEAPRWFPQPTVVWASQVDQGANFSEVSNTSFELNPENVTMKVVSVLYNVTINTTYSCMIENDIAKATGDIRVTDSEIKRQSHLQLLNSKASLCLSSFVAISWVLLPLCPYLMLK
Experimental: as §1

[4] = biological target: T3, human recombinant His tagged B7H4 protein (Sino Biological cat. no. 10738-H08H) (human, UniProt Q7Z7D3 29-258); test: BLI (Octet HTX); antibody on anti-human IgG Fc capture sensor, human B7H4 ECD-His in solution; 1st experiment
T3 construct: Bought protein; theoretical mass 26.8 kDa; also called human B7H4; human B7H4 extracellular domain
T3 sequence: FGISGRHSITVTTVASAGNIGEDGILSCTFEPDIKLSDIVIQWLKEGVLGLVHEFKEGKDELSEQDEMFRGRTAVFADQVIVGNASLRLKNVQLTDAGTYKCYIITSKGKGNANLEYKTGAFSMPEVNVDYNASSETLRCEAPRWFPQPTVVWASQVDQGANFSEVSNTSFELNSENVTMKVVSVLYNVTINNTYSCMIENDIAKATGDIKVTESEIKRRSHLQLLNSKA
Experimental: Target binding affinity of B7H4 antibodies was determined by label-free biolayer interferometry (BLI) on an Octet HTX instrument (FortéBio). Experiments were carried out while shaking at 1,000 RPM at 30° C. […] Anti-Human IgG Fc Capture (AHC) biosensors (FortéBio, cat. no. 18-5060) were pre-conditioned by exposure to 10 mM glycine (Sigma-Aldrich, cat. no. 15527) buffer pH 1.7 for 5 s, followed by neutralization in Sample Diluent (FortéBio, cat. no. 18-1048) for 5 s; both steps were repeated 2 times. Next, AHC sensors were loaded with antibody (1 μg/mL in Sample diluent) for 600 s. […] The theoretical molecular mass of human B7H4 and mouse B7H4 (as ECD-His tagged molecules) based on their amino acid sequences (26.8 kDa and 26.6 kDa respectively) were used for calculations. For each antibody a reference sensor was used, which was incubated with Sample Diluent instead of antigen. AHC sensors were regenerated by exposure to 10 mM glycine buffer pH 1.7 for 5 s, followed by neutralization in Sample Diluent for 5 s; both steps were repeated twice. Subsequently sensors were loaded again with antibody for the next cycle of kinetics measurements.
Data were acquired using Data Acquisition Software v9.0.0.49d (FortéBio) and analyzed with Data Analysis Software v9.0.0.12 (FortéBio). Data traces were corrected per antibody by subtraction of the reference sensor. The Y-axis was aligned to the last 10 s of the baseline, Interstep Correction alignment to dissociation and Savitzky-Golay filtering were applied. Data traces with a response<0.05 nm were excluded from analysis. The data was fitted with the 1:1 Global Full fit model using a window of interest for the association and dissociation times set at 300 s and 200 s respectively.

[5] = biological target: T4, rat (Rattus norvegicus) B7H4, full length, on HEK-293F cells (rat, UniProt Q501W4 25-257); test: flow cytometry, HEK-293F cells transfected with rat B7H4 [panel Rat B7H4]
T4 construct: Uniprot Q501W4; also called rat B7H4
T4 sequence: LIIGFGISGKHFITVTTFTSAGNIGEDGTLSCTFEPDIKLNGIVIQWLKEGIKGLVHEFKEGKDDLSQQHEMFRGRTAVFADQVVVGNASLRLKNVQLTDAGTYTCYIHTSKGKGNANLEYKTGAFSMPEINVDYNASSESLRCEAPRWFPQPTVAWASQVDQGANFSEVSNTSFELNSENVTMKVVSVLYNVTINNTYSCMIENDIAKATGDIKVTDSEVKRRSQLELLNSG
Experimental: as §1

B1: bsIgG1-huCD3-H101G-FEALxB7H4-C1-N52S-FEAR (bispecific antibody)
heavy 1: not shown
light 1: not shown
heavy 2: QVQLQQWGAGLLKPSETLSLTCAVYGGSFSGYYWSWIRQPPGKGLEWIGEISHSGSTNYNPSLKSRVTISIDTSKNQFSLKLTSVTAADTAVFYCARGLFNWNFDSWGQGTLVTVSSASTKGPSVFPLAPSSKSTSGGTAALGCLVKDYFPEPVTVSWNSGALTSGVHTFPAVLQSSGLYSLSSVVTVPSSSLGTQTYICNVNHKPSNTKVDKRVEPKSCDKTHTCPPCPAPEFEGGPSVFLFPPKPKDTLMISRTPEVTCVVVAVSHEDPEVKFNWYVDGVEVHNAKTKPREEQYNSTYRVVSVLTVLHQDWLNGKEYKCKVSNKALPAPIEKTISKAKGQPREPQVYTLPPSREEMTKNQVSLTCLVKGFYPSDIAVEWESNGQPENNYKTTPPVLDSDGSFFLYSRLTVDKSRWQQGNVFSCSVMHEALHNHYTQKSLSLSPGK
light 2: DIQMTQSPSSLSASVGDRVTITCRASQGIRNDLGWYQQKPGKAPKRLIYGASSLQSGVPSRFSGSGSGTEFTLTISSLQPEDFATYYCLQHNSYPRTFGQGTTVEIKRTVAAPSVFIFPPSDEQLKSGTASVVCLLNNFYPREAKVQWKVDNALQSGNSQESVTEQDSKDSTYSLSSTLTLSKADYEKHKVYACEVTHQGLSSPVTKSFNRGEC
notes: also called bslgG1-huCD3-H101G-FEALxB7H4-C1-N52S-FEAR; BslgG1-huCD3-H101G-FEALxB7H4-C1-N52S-FEAR
In the case of B1, the “IC50 of T cell-mediated cytotoxicity, HCC1954 cells, highest of 4 donors” value [1] is reported as 0.22 mg/L, the “IC50 of T cell-mediated cytotoxicity, HCC1954 cells, lowest of 4 donors” value [1] is reported as 0.06 mg/L and the “IC50 of T cell-mediated cytotoxicity, MCF7 cells, highest of 4 donors” value [1] is reported as 1.29 mg/L. The “IC50 of T cell-mediated cytotoxicity, MCF7 cells, lowest of 4 donors” value [1] was 0.55 mg/L, the “IC50 of T cell-mediated cytotoxicity, MDA-MB-468 cells, highest of 4 donors” value [1] was 0.16 mg/L and the “IC50 of T cell-mediated cytotoxicity, MDA-MB-468 cells, lowest of 4 donors” value [1] was 0.08 mg/L. For the same binder, the “IC50 of T cell-mediated cytotoxicity, NCI-H16650 cells, highest of 4 donors” value [1] was 5.07 mg/L, the “IC50 of T cell-mediated cytotoxicity, NCI-H16650 cells, lowest of 4 donors” value [1] was 1.67 mg/L and the “IC50 of T cell-mediated cytotoxicity, OVCAR3 cells, highest of 4 donors” value [1] was 1.63 mg/L. For the same binder, the “IC50 of T cell-mediated cytotoxicity, OVCAR3 cells, lowest of 4 donors” value [1] was 0.09 mg/L, the “IC50 of T cell-mediated cytotoxicity, SK-BR3 cells, highest of 4 donors” value [1] was 0.22 mg/L and the “IC50 of T cell-mediated cytotoxicity, SK-BR3 cells, lowest of 4 donors” value [1] was 0.09 mg/L. The “EC50 (read off the curve)” value [2] was about 1 mg/L.

B2: IgG1-B7H4-C1-N52S-FEAR (antibody, V domains shown)
VH: QVQLQQWGAGLLKPSETLSLTCAVYGGSFSGYYWSWIRQPPGKGLEWIGEISHSGSTNYNPSLKSRVTISIDTSKNQFSLKLTSVTAADTAVFYCARGLFNWNFDSWGQGTLVTVSS
VL: DIQMTQSPSSLSASVGDRVTITCRASQGIRNDLGWYQQKPGKAPKRLIYGASSLQSGVPSRFSGSGSGTEFTLTISSLQPEDFATYYCLQHNSYPRTFGQGTTVEIKR
notes: Full length human IgG1 with L234F, L235E, D265A, K409R (FEAR) heavy chain constant region and kappa light chain; bivalent, monospecific; also called IgG1-B7H4-C1-052S-FEAR
For B2, the binding result [3] was “binds”, the Kd [4] was 0.057 µM and the koff [4] was 0.0054 s⁻¹. It also gave a kon [4] of 94000 M⁻¹ s⁻¹.

B3: IgG1-B7H4-C5-FEAR (antibody, V domains shown)
VH: QLQLQESGPGLVKPSETLSLTCTVSGGSIKSGSYYWGWIRQPPGKGLEWIGNIYYSGSTYYNPSLRSRVTISVDTSKNQFSLKLSSVTAADTAVYYCAREGSYPNQFDPWGQGTLVTVSS
VL: EIVMTQSPATLSVSPGERATLSCRASQSVSSNLAWYQQKPGQAPRLLIYGASTRATGIPARFSGSGSGTEFTLTISSLQSEDFAVYYCQQYHSFPFTFGGGTKVEIKR
notes: Full length IgG1 FEAR, kappa; variable domains from US20190085080A1
B3: binds [5].

Reference: patent publication US20240383982A1 (Genmab, published 2024)
